Source: patent US7572771
Several values for one entry are separate records, joined by “and”; a condition that tells them apart may be missing. Equal values may be shown once. Where no end group is shown, it is not given here.

Legend:
[1] = biological target: human ABCA1 transporter (ATP-binding cassette transporter A1) (human) (UniProt O95477); test: cell-based or functional assay
[2] = biological target: human ABCA1 transporter (ATP-binding cassette transporter A1) (human) (UniProt O95477); test: two-step sequential competition on ABCA1-transfected HeLa cells; competitor at 8 µM, tracer 125I-L-37pA
[3] = biological target: human ABCA1 transporter (ATP-binding cassette transporter A1) (human) (UniProt O95477); test: 125I-L-37pA (1 µg/ml, 1 hour, 4° C.) bound to ABCA1-transfected HeLa cells, no competitor

Chain of UniProt O95477 (O95477 whole entry): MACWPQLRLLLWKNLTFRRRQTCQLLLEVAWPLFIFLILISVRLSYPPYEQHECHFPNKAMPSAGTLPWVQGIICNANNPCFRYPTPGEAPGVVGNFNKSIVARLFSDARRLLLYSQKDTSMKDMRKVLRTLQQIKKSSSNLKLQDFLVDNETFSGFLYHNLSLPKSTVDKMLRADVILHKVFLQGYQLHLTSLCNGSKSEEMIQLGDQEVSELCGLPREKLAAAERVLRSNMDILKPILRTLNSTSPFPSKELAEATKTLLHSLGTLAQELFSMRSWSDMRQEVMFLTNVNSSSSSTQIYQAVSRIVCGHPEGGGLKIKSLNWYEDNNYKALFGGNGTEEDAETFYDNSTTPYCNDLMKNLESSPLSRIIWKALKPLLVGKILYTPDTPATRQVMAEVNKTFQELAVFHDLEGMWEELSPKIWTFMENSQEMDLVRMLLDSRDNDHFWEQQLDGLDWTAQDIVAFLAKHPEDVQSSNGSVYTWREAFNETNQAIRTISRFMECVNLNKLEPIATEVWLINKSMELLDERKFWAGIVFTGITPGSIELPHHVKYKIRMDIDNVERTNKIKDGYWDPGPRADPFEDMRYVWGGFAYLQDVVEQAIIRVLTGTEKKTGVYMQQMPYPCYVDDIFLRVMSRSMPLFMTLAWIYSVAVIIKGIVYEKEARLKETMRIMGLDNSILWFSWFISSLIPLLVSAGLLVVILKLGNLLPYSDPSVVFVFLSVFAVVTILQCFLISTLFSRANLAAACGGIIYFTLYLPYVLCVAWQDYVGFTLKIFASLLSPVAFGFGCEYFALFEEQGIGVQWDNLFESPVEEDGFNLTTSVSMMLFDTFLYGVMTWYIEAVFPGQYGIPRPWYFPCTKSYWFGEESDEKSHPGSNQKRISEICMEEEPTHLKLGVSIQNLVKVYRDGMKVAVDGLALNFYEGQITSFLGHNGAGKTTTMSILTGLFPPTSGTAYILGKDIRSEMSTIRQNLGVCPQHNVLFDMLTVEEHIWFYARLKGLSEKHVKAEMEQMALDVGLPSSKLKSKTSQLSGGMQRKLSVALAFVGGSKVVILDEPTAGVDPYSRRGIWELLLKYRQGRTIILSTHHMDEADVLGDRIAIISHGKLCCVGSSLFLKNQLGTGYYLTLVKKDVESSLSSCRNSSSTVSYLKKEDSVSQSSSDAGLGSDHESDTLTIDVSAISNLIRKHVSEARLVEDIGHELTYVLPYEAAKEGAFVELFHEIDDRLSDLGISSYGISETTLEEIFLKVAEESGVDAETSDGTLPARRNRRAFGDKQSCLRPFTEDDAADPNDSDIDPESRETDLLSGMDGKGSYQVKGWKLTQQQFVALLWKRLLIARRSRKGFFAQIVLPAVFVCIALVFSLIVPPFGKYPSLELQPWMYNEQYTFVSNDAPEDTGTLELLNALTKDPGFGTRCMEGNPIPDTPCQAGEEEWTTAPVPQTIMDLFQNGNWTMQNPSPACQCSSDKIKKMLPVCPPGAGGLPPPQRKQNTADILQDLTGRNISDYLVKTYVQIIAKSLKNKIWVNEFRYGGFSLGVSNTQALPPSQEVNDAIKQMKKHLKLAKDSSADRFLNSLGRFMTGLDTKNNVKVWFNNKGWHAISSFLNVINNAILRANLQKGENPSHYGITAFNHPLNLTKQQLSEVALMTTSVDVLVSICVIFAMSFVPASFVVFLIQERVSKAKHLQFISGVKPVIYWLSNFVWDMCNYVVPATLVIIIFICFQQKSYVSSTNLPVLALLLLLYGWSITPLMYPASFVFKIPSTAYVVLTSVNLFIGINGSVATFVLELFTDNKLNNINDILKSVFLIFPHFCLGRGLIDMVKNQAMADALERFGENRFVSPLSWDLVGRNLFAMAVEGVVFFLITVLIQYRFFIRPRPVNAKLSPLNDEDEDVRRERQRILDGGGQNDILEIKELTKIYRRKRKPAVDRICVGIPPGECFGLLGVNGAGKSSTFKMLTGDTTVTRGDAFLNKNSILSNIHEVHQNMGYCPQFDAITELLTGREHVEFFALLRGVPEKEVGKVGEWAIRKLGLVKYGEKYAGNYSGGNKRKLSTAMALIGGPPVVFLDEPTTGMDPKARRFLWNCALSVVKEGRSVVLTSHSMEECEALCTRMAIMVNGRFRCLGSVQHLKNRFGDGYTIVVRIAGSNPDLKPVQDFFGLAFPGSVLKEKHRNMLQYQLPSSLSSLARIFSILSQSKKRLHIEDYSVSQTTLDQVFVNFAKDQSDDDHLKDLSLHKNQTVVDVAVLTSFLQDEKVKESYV

cholesterol and phospholipid efflux, ABCA1 cells against control cells [1]: 2 fold and 4 fold
concentration at which lipid efflux begins to show saturation [1]: 2 µM
percent of labeled L-37pA binding blocked [2]: 40%
cell-bound radiolabeled peptide in the absence of a competitor (pmol/mg cell protein) [3]: 35
B1: L-37pA peptide (peptide)
peptide: DWLKAFYDKVAEKLKEAFPDWLKAFYDKVAEKLKEAF
modifications: also: tracer form 125I-labelled with iodine monochloride
